Source: paper PMC9352680, “A comprehensive thermodynamic model for RNA binding by the Saccharomyces cerevisiae Pumilio protein PUF4”

T1: PUF4 RNA-binding domain (Saccharomyces cerevisiae, UniProt P25339 537-888)
T1 sequence: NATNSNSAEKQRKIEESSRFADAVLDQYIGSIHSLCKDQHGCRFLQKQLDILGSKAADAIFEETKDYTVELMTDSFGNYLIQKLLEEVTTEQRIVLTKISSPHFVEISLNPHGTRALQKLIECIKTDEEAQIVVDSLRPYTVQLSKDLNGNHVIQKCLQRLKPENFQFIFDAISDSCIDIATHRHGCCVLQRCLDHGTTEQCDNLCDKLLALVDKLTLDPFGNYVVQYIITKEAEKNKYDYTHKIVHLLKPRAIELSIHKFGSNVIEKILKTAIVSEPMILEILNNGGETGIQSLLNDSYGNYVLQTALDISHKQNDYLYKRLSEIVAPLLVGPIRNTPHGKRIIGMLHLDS


Target: T1, PUF4 RNA-binding domain
Assay: Mg; RNA-MaP; 20 mM Na-HEPES pH 7.4, 30 mM KOAc, 0.75 mM MgCl2, 0.1% Tween-20, 5% glycerol, 0.1 mg/mL BSA, 2 mM DTT; 25 C; 0.0125-409.6 nM protein
Details: tags: N-His6-TEV cleaved; C-SNAP kept, Cy3B-labelled; label: tethered on chip by stalled RNA polymerase

Binder | Kd [nM]
UCUCUUUGUACUGUUAUCUCUU (ssRNA) [Ib_S1_P5E.1_K5.1_C5.1_H5.1_A5.1_[T5C]_[A7G]_F5.1_T5.1] | 7.89
Id_iii_S4_P3E.5_K3.1_C3.3_[C-2G]_H3.1_A3.1_F3.1_T3.2 (ssRNA) RNA: UUUGACAACUGAUCGUUCUUUCUUGUUGUAUAUAUAUUCUUUCUCGAUCAGUUGUCUUU | 1.77
Id_iii_S4_P3E.7_K3.3_C3.3_H3.3_A3.1_F3.1_T3.2_[A10C] (ssRNA) RNA: UUUGACAACUGAUCGUUCUUUCUUCUACACUAUAUCUUCUUUCUCGAUCAGUUGUCUUU | 611
Id_iii_S4_P3E.7_K3.3_C3.3_[T-3A]_H3.3_A3.1_F3.1_T3.2 (ssRNA) RNA: UUUGACAACUGAUCGUUCUUUCUACUACACUAUAUAUUCUUUCUCGAUCAGUUGUCUUU | 364
Id_iii_S4_P3E.9_K3.5_C3.3_[C-2T]_H3.1_A3.2_F3.2_T3.2 (ssRNA) RNA: UUUGACAACUGAUCGUUCUUUCUUUUUGUAAAAAUAUUCUUUCUCGAUCAGUUGUCUUU | 34.5
Id_iii_S4_P3E.8_K3.4_C3.3_H3.1_A3.2_F3.1_T3.2_[A10G] (ssRNA) RNA: UUUGACAACUGAUCGUUCUUUCUUCUUGUAAAUAUGUUCUUUCUCGAUCAGUUGUCUUU | 14.2
Id_iii_S4_P3E.7_K3.3_C3.3_[T-1A]_H3.3_A3.1_F3.1_T3.2 (ssRNA) RNA: UUUGACAACUGAUCGUUCUUUCUUCAACACUAUAUAUUCUUUCUCGAUCAGUUGUCUUU | 137
Id_iii_S4_P3E.6_K3.2_C3.3_[T-1C]_H3.2_A3.1_F3.1_T3.2 (ssRNA) RNA: UUUGACAACUGAUCGUUCUUUCUUCCUAUAUAUAUAUUCUUUCUCGAUCAGUUGUCUUU | 33.1
Id_iii_S4_P3E.6_K3.2_C3.3_H3.2_A3.1_F3.1_T3.2_[A10C] (ssRNA) RNA: UUUGACAACUGAUCGUUCUUUCUUCUUAUAUAUAUCUUCUUUCUCGAUCAGUUGUCUUU | 131
Id_iii_S4_P3E.6_K3.2_C3.3_[C-2G]_H3.2_A3.1_F3.1_T3.2 (ssRNA) RNA: UUUGACAACUGAUCGUUCUUUCUUGUUAUAUAUAUAUUCUUUCUCGAUCAGUUGUCUUU | 20.4
Id_iii_S4_P3E.8_K3.4_C3.3_[T-1C]_H3.1_A3.2_F3.1_T3.2 (ssRNA) RNA: UUUGACAACUGAUCGUUCUUUCUUCCUGUAAAUAUAUUCUUUCUCGAUCAGUUGUCUUU | 2.97
Id_iii_S4_P3E.5_K3.1_C3.3_[T-1A]_H3.1_A3.1_F3.1_T3.2 (ssRNA) RNA: UUUGACAACUGAUCGUUCUUUCUUCAUGUAUAUAUAUUCUUUCUCGAUCAGUUGUCUUU | 1.71
Id_iii_S4_P3E.9_K3.5_C3.3_[T-3G]_H3.1_A3.2_F3.2_T3.2 (ssRNA) RNA: UUUGACAACUGAUCGUUCUUUCUGCUUGUAAAAAUAUUCUUUCUCGAUCAGUUGUCUUU | 25.8
Id_iii_S4_P3E.7_K3.3_C3.3_[C-2G]_H3.3_A3.1_F3.1_T3.2 (ssRNA) RNA: UUUGACAACUGAUCGUUCUUUCUUGUACACUAUAUAUUCUUUCUCGAUCAGUUGUCUUU | 0.724
Id_iii_S4_P3E.9_K3.5_C3.3_H3.1_A3.2_F3.2_T3.2_[A10C] (ssRNA) RNA: UUUGACAACUGAUCGUUCUUUCUUCUUGUAAAAAUCUUCUUUCUCGAUCAGUUGUCUUU | 308
Id_iii_S4_P3E.9_K3.5_C3.3_[T-1A]_H3.1_A3.2_F3.2_T3.2 (ssRNA) RNA: UUUGACAACUGAUCGUUCUUUCUUCAUGUAAAAAUAUUCUUUCUCGAUCAGUUGUCUUU | 48.5
ACAAACUCCUAUAUAUAUAACAAAC (ssRNA) [Id_iii_S3_P3E.6_K3.2_C3.3_[T-1C]_H3.2_A3.1_F3.1_T3.2] | 218
ACAAACUCUACACUAUAUUACAAAC (ssRNA) [Id_iii_S3_P3E.7_K3.3_C3.3_H3.3_A3.1_F3.1_T3.2_[A10T]] | 922
Ic_S2_P3E.1_K3.1_C3.1_H3.1_A3.1_F3.1_[A8G]_T3.1 (ssRNA) RNA: UUUGAUUAAUAUGAUAUCGUUCUUUCUUGUAUAUGUUCUUUCUCGAUAUCAUAUUAAUCUUU | 11.7
UCUCUUUGUAAAAUUAUCUCUU (ssRNA) [Ib_S1_P5E.1_K5.1_C5.1_H5.1_A5.1_[T5A]_[T6A]_F5.1_T5.1] | 10.6
ACAAACCCUUAUAUAUAUAACAAAC (ssRNA) [Id_iii_S3_P3E.6_K3.2_C3.3_[T-3C]_H3.2_A3.1_F3.1_T3.2] | 446
UCUCUUUGUAACAUUAUCUCUU (ssRNA) [Ib_S1_P5E.1_K5.1_C5.1_H5.1_A5.1_[T5A]_[T6C]_F5.1_T5.1] | 4.31
ACAAACACUACACUAUAUAACAAAC (ssRNA) [Id_iii_S3_P3E.7_K3.3_C3.3_[T-3A]_H3.3_A3.1_F3.1_T3.2] | 760
Id_iii_S2_P5E.7_K5.3_C5.3_H5.3_A5.1_F5.1_T5.2_[A12T] (ssRNA) RNA: UUUGAUUAAUAUGAUAUCGUUCUUUCUUCUACACUUAUUAUUUUCUUUCUCGAUAUCAUAUUAAUCUUU | 2160
Id_iii_S2_P5E.8_K5.4_C5.3_H5.1_A5.2_F5.1_T5.2_[A12C] (ssRNA) RNA: UUUGAUUAAUAUGAUAUCGUUCUUUCUUCUUGUAAUAUUAUCUUCUUUCUCGAUAUCAUAUUAAUCUUU | 3.6

Binder | Kd [nM]
Id_iii_S2_P5E.8_K5.4_C5.3_[C-2A]_H5.1_A5.2_F5.1_T5.2 (ssRNA) RNA: UUUGAUUAAUAUGAUAUCGUUCUUUCUUAUUGUAAUAUUAUAUUCUUUCUCGAUAUCAUAUUAAUCUUU | 40.3
Id_iii_S2_P5E.8_K5.4_C5.3_[T-3C]_H5.1_A5.2_F5.1_T5.2 (ssRNA) RNA: UUUGAUUAAUAUGAUAUCGUUCUUUCUCCUUGUAAUAUUAUAUUCUUUCUCGAUAUCAUAUUAAUCUUU | 5.82
Id_iii_S2_P5E.8_K5.4_C5.3_[T-3A]_H5.1_A5.2_F5.1_T5.2 (ssRNA) RNA: UUUGAUUAAUAUGAUAUCGUUCUUUCUACUUGUAAUAUUAUAUUCUUUCUCGAUAUCAUAUUAAUCUUU | 8.09
Id_iii_S2_P5E.9_K5.5_C5.3_H5.1_A5.2_F5.2_T5.2_[A12G] (ssRNA) RNA: UUUGAUUAAUAUGAUAUCGUUCUUUCUUCUUGUAAUAAAAUGUUCUUUCUCGAUAUCAUAUUAAUCUUU | 189
Id_iii_S2_P5E.8_K5.4_C5.3_[C-2T]_H5.1_A5.2_F5.1_T5.2 (ssRNA) RNA: UUUGAUUAAUAUGAUAUCGUUCUUUCUUUUUGUAAUAUUAUAUUCUUUCUCGAUAUCAUAUUAAUCUUU | 8.91
Id_iii_S2_P5E.8_K5.4_C5.3_H5.1_A5.2_F5.1_T5.2_[A12T] (ssRNA) RNA: UUUGAUUAAUAUGAUAUCGUUCUUUCUUCUUGUAAUAUUAUUUUCUUUCUCGAUAUCAUAUUAAUCUUU | 2.65
Id_iii_S2_P5E.8_K5.4_C5.3_[C-2G]_H5.1_A5.2_F5.1_T5.2 (ssRNA) RNA: UUUGAUUAAUAUGAUAUCGUUCUUUCUUGUUGUAAUAUUAUAUUCUUUCUCGAUAUCAUAUUAAUCUUU | 15.4
Id_iii_S2_P5E.9_K5.5_C5.3_H5.1_A5.2_F5.2_T5.2_[A12T] (ssRNA) RNA: UUUGAUUAAUAUGAUAUCGUUCUUUCUUCUUGUAAUAAAAUUUUCUUUCUCGAUAUCAUAUUAAUCUUU | 158
Id_iii_S2_P5E.8_K5.4_C5.3_H5.1_A5.2_F5.1_T5.2_[A12G] (ssRNA) RNA: UUUGAUUAAUAUGAUAUCGUUCUUUCUUCUUGUAAUAUUAUGUUCUUUCUCGAUAUCAUAUUAAUCUUU | 6.61
Id_iii_S2_P5E.9_K5.5_C5.3_H5.1_A5.2_F5.2_T5.2_[A12C] (ssRNA) RNA: UUUGAUUAAUAUGAUAUCGUUCUUUCUUCUUGUAAUAAAAUCUUCUUUCUCGAUAUCAUAUUAAUCUUU | 146
ACAAACUCCACACUAUUAGUACAAAC (ssRNA) [Id_iii_S3_P4E.7_K4.3_C4.3_[T-1C]_H4.3_A4.1_F4.1_T4.2] | > 2300
ACAAACUCUUAUAUAUACAACAAAC (ssRNA) [Id_iii_S3_P3E.6_K3.2_C3.3_H3.2_A3.1_F3.1_T3.2_[T9C]] | 693
ACAAACUUUUAUAUAUAUAACAAAC (ssRNA) [Id_iii_S3_P3E.6_K3.2_C3.3_[C-2T]_H3.2_A3.1_F3.1_T3.2] | 598
UCUCUUUGUAGUCUUAUCUCUU (ssRNA) [Ib_S1_P5E.1_K5.1_C5.1_H5.1_A5.1_[T5G]_[A7C]_F5.1_T5.1] | 93.7
ACAAACUCAACACUAUAUAACAAAC (ssRNA) [Id_iii_S3_P3E.7_K3.3_C3.3_[T-1A]_H3.3_A3.1_F3.1_T3.2] | 1780
UCUCUUGGUAUAUAUCUCUU (ssRNA) [Ia_S1_P3E.1_K3.1_C3.1_H3.1_[T1G]_A3.1_F3.1_T3.1] | 2290
ACAAACUAUACACUAUAUAACAAAC (ssRNA) [Id_iii_S3_P3E.7_K3.3_C3.3_[C-2A]_H3.3_A3.1_F3.1_T3.2] | 32.5
Id_iii_S4_P4E.5_K4.1_C4.3_[C-2A]_H4.1_A4.1_F4.1_T4.2 (ssRNA) RNA: UUUGACAACUGAUCGUUCUUUCUUAUUGUAUAUUAGUUUCUUUCUCGAUCAGUUGUCUUU | 0.43
Id_iii_S4_P4E.7_K4.3_C4.3_[C-2A]_H4.3_A4.1_F4.1_T4.2 (ssRNA) RNA: UUUGACAACUGAUCGUUCUUUCUUAUACACUAUUAGUUUCUUUCUCGAUCAGUUGUCUUU | 91.7
Id_iii_S4_P4E.8_K4.4_C4.3_[T-3C]_H4.1_A4.2_F4.1_T4.2 (ssRNA) RNA: UUUGACAACUGAUCGUUCUUUCUCCUUGUAUUUUAGUUUCUUUCUCGAUCAGUUGUCUUU | 0.631
Id_iii_S4_P4E.7_K4.3_C4.3_[C-2G]_H4.3_A4.1_F4.1_T4.2 (ssRNA) RNA: UUUGACAACUGAUCGUUCUUUCUUGUACACUAUUAGUUUCUUUCUCGAUCAGUUGUCUUU | 1.75
Id_iii_S4_P4E.6_K4.2_C4.3_[T-1A]_H4.2_A4.1_F4.1_T4.2 (ssRNA) RNA: UUUGACAACUGAUCGUUCUUUCUUCAUAUAUAUUAGUUUCUUUCUCGAUCAGUUGUCUUU | 7.5
Id_iii_S4_P4E.7_K4.3_C4.3_H4.3_A4.1_F4.1_T4.2_[T11C] (ssRNA) RNA: UUUGACAACUGAUCGUUCUUUCUUCUACACUAUUAGCUUCUUUCUCGAUCAGUUGUCUUU | > 2300
UCUCUUUGUAGUUUUAUCUCUU (ssRNA) [Ib_S1_P5E.1_K5.1_C5.1_H5.1_A5.1_[T5G]_[A7T]_F5.1_T5.1] | 27.2
